US20260176336A1 (MESTAG THERAPEUTICS, published 2026)

Experiments:
[1] = target: T1, human LTBR endogenously expressed on cells (HepG2, A549, A375, HCC1187, RPMI-7951, primary human breast CAFs) (human, UniProt P36941 31-435); experiment: cell-based or functional assay
[2] = target: Human LTBR (Acro), recombinant protein (human, UniProt P36941 31-227, limits assumed); experiment: SPR (Carterra LSA), antibody captured by anti-human Fc, LTBR as analyte
Protocol: (§1) The binding of anti-LTBR antibodies to human and cynomolgus LTBR was investigated by Surface Plasmon Resonance (SPR) on Carterra LSA. An EC30M chip was used to capture the test antibodies. Activation with EDC and sNHS occurred in MES pH 5.5 to prepare the chip for amine coupling. Goat anti-human IgG Fc antibody was then captured to the chip via incubation for 10 minutes. Excess conjugation sites were quenched with 1M Ethanolamine pH 8. To measure monovalent binding kinetics, antibodies were printed/spotted onto the chip and allowed to bind to the goat antibody, followed by subsequent washing. After the preparation, the printed chip was exposed to repeated rounds of association and dissociation with increasing analyte concentrations. In this work, recombinant proteins (Human LTBR (Acro) or cyno LTBR His (R&D)) were serially diluted across a range starting at 1500 nM with 3-fold dilutions and 10 points. The curves were fitted to global fit in a 1:1 binding model to obtain KD values. The binding affinity to both species is reported.

[3] = target: T2, cyno LTBR His (R&D), recombinant protein (cynomolgus (Macaca fascicularis), UniProt P36941 31-227 (human entry), limits assumed); experiment: as above
T2 construct: bought protein used as analyte on Carterra LSA
T2 sequence (P36941 other isoform, or with tags, fused parts or gaps limits assumed): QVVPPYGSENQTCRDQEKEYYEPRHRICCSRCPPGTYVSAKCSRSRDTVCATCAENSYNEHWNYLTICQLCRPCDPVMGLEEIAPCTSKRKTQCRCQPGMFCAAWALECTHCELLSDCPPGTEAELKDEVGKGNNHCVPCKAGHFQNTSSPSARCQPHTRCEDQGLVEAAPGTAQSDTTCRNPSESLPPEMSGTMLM
Protocol: as §1

[4] = target: T1, human LTBR endogenously expressed on …; experiment: flow cytometry, A375 cells
Protocol: For binding to LTBR-positive cells, the A375 tumor cell line was used. At the same time, binding to LTBR-negative HEK293 cells was tested to confirm specificity. In short, the cells were resuspended in the FACS binding buffer, and live/dead efluro450 viability dye was added at a 1:1000 dilution to the cell suspension, followed by incubation at room temperature in the dark for 30 minutes. The cells were then diluted to 2 e5/ml, and 100 ul was added to wells of a 96-well U-bottom plate as required. […] The cells were pelleted by centrifugation, and the supernatant was discarded, followed by the addition of a series of dilutions of anti-LTBR antibodies and incubation for 45 minutes at 4 C in the dark. Cells were washed two times with PBS with 3% (w/v) BSA before adding 60 ul of fluorescently labelled secondary antibody (goat anti-human IgG) diluted to 1:200 in PBS. Incubation continued at 4 C for at least 30 minutes, followed by two washes in PBS pH 7.4. Cells were either fixed with 2% PFA (30 minutes at 4 C) followed by washout and storage in 100 ul of PBS or immediately analysed on a Flow Cytometer. The data were analysed using FloJo V10 and GraphPad Prism. No binding to the HEK cell line was detected for any tested clones, confirming the specific interaction between anti-LTBR antibodies and LTBR receptor. The results are summarised in.

[5] = target: mouse LTBR on cells (4T1 tumor cell line; primary mouse lung fibroblasts) (mouse, UniProt P50284 31-415); experiment: cell-based or functional assay
Chain of mouse LTBR on cells (4T1 tumor cell line; primary mouse lung fibroblasts) (P50284 31-415): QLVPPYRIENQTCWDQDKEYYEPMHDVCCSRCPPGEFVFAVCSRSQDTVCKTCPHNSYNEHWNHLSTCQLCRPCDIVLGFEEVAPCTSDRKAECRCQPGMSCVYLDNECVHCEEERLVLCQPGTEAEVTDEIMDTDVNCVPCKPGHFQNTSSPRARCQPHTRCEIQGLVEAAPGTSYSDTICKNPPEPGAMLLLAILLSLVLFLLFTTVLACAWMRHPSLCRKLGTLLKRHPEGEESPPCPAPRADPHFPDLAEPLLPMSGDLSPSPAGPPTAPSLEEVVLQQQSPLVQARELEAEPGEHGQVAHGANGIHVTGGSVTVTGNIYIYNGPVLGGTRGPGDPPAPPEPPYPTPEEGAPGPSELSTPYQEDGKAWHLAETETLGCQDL

[6] = target: T1, human LTBR endogenously expressed on …; experiment: cell-based or functional assay; remark: listed apart in the source
[7] = target: T1, human LTBR endogenously expressed on …; experiment: cell-based or functional assay; remark: listed apart in the source

Chain of Human LTBR (Acro), recombinant protein (P36941 31-227 limits assumed): as the sequence (P36941 other isoform, or with tags, fused parts or gaps limits assumed) above, with V2A, G7A, R24Q, S45I, D163N, R181K, S184L, S186P counted along it
T1 sequence (P36941 31-435): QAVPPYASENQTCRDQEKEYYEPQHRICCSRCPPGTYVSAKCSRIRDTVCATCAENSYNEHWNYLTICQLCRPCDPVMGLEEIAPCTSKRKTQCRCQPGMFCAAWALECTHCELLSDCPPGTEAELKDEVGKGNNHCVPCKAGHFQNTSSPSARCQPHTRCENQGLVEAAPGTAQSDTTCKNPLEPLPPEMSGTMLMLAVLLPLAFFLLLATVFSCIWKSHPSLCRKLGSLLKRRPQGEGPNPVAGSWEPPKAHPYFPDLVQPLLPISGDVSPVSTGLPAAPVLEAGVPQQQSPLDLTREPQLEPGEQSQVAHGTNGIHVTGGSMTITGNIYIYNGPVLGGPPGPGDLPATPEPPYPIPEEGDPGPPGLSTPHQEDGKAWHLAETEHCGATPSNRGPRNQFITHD

B1: Clone 2.4 (antibody, V domains shown)
VH: QVQLVESGGGVVQPGRSLRLSCAASGFTFSSYGIHWVRQAPGKGLEWVAVIWYDGSNKYYADSVKGRFTISRDNSKNTLYLQMNSLRAEDTAVYYCARDGGTGNYYYMDVWGKGTTVTVSS
VL: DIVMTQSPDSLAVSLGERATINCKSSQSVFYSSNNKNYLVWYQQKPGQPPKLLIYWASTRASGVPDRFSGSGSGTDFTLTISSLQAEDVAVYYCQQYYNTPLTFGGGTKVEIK
notes: anti-LTBR mAb (bivalent)
HepG2 reporter assay EC50 (with cross-linking antibody) [1]: 90 pM | Kd [2]: 36000 pM | Kd [3]: 53000 pM

B2: Clone 2.5 (antibody, V domains shown)
VH: EVQLVESGGGLVQPGRSLRLSCAASGFTFDDYDIHWVRQAPGKGLEWVSGINWNSITIGYADSVKGRFTISRDNAKNSLYLQMNSLRAEDTALYYCAKDRGSGWRIFDYWGQGTLVTVSS
VL: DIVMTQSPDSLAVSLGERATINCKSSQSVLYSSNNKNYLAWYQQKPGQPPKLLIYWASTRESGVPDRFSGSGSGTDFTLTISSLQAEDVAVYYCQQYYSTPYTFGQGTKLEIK
notes: anti-LTBR mAb (bivalent)
HepG2 reporter assay EC50 (w/o cross-linking antibody) [1]: 240 pM | HepG2 reporter assay EC50 (with cross-linking antibody) [1]: 140 pM | EC50 [4]: 5400 pM | Kd [2]: 2100 pM | Kd [3]: 1600 pM

B3: Clone 2.1 (antibody, V domains shown)
VH: EVQLVESGGGLVKPGGSLRLSCAASGFTFSSYCMNWVRQAPGKGLEWVSSISTGNTYIYYSDSVKGRFTISRDNAKNSLYLQMNSLRAEDTAVYYCARARYNWNYDAFDIWGQGTMVTVSS
VL: DIQMTQSPSSLSASIGDRVTITCQASQDISNFLSWYQQKPGKAPNLLIFDASNLETGVPSRFSESGSGTDFSFTITSLQPEDIATYYCQQYYNVPLTFGGGTKVEIK
notes: anti-LTBR mAb (bivalent)
HepG2 reporter assay EC50 (with cross-linking antibody) [1]: 160 pM | EC50 [4]: 1000 pM | Kd [2]: 250 pM | Kd [3]: 260 pM

B4: Clone 2.8 (antibody, V domains shown)
VH: QVQLQESGPGLVKPSGTLSLTCAVSGGSISSSNWWSWVRQPPGKGLEWIGDIYHDGTTYYNPSLKSRVTVSVDKSKNQFSLKLSSVTAADTAVYYCARSPSGTTDYFDYWGQGTLVTVSS
VL: DIQMTQSPSSLSASVGDRVNITCRASQSISSYLNWYQQKPGKAPKLLIYAPSSLQSGVPSRFSGGGSGTDFTLTISSLQPEDFATYFCQQSYSTPPTFGPGTKVDIK
notes: anti-LTBR mAb (bivalent)
Kd [2]: 280 pM | Kd [3]: 2600 pM

B5: Clone 2.6 (antibody, V domains shown)
VH: QVQLVQSGTEMKKPGASVKVSCKASGYTFSSYDISWVRQAPGQGLEWMGWFSAYNGNSNYAQKFQGRVTMTTDTSTNTAYMELRSLRSDDTAVYYCAREGYYGNSGFFDYWGQGTLVTVSS
VL: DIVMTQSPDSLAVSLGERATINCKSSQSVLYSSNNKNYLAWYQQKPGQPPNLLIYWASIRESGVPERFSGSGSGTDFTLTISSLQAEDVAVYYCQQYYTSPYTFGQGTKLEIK
notes: anti-LTBR mAb (bivalent)
HepG2 reporter assay EC50 (w/o cross-linking antibody) [1]: 73 pM | HepG2 reporter assay EC50 (with cross-linking antibody) [1]: 100 pM | EC50 [4]: 3500 pM | Kd [2]: 180 pM | Kd [3]: 24 pM

B6: Clone 4.15 (antibody, V domains shown)
VH: QVQLKESGPGLVQPSQTLSLTCTVSGFSLTTYSVHWVRQHSGKSLEWMGRMWTDGDTSYNSAFTSRLSISRDTSKSQVFLKMNSLQTEDTGTYYCARGYWYFDFWGPGTMVTVSS
VL: DVQMTQSPSYLAASPGESVSIRCKASKSISNNLAWYQEKPGKANKLLIHSGSTLQSGTPSRFSGSGSGTDFTLTIRSLEFEDFAVYYCQQYNEYPYTFGAGTKLELK
4T1 monoculture CCL5 read-out EC50 [5]: 840 pM | 4T1 monoculture CCL5 read-out EC50, 4.15 + cross-linking antibody [5]: 36 pM

B7: Clone 2.7 (antibody, V domains shown)
VH: EVQLVESGGGLVQPGGSLRLSCAASGFIFDDYDMHWVRQAPGKGLEWVSGINWNSNRVDYADSVKGRFTISRDNARNSLYLQMNSLRPEDTAFYYCVKDKTSSWYVFDSWGQGTPVTVSS
VL: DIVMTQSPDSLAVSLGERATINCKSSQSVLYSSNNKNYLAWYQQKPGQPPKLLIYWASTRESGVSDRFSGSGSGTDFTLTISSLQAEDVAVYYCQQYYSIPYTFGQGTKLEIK
notes: anti-LTBR mAb (bivalent)
HepG2 reporter assay EC50 (w/o cross-linking antibody) [1]: 170 pM | HepG2 reporter assay EC50 (with cross-linking antibody) [1]: 180 pM | EC50 [4]: 9500 pM | Kd [2]: 4300 pM | Kd [3]: 1300 pM

B8: Clone 2.3 (antibody, V domains shown)
VH: EVQLVESGGGLVQPGGSLRLSCAASGFTFSSYAMSWVRQAPGKGLEWVSGISGSGGRTNYADSVKGRFTISRDNSKNTLYLQMNSLRAEDTAVYYCAKSDNWHYLDAFDIWGQGTMVTVSS
VL: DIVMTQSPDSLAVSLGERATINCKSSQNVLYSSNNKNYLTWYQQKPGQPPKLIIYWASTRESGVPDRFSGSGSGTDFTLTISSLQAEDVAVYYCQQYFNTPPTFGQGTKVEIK
notes: anti-LTBR mAb (bivalent)
HepG2 reporter assay EC50 (w/o cross-linking antibody) [1]: 130 pM | HepG2 reporter assay EC50 (with cross-linking antibody) [1]: 43 pM | EC50 [4]: 660 pM | Kd [2]: 580 pM | Kd [3]: 390 pM

B9: Clone 4.10 (bispecific antibody, human IgG1, kappa, L234A L235A)
heavy 1: not shown
heavy 2: EVQLVESGGGLVKPGGSLRLSCVASGFTFSLAWMNWVRQAPGKGLEWVGHIKSRADGGSTDYAAPVKGRFTISRDDSKNTLYLHMNSLKTEDTAVYFCSRFYWNYVLDYWGQGTLVTVSSASTKGPSVFPLAPSSKSTSGGTAALGCLVKDYFPEPVTVSWNSGALTSGVHTFPAVLQSSGLYSLSSVVTVPSSSLGTQTYICNVNHKPSNTKVDKKVEPKSCDKTHTCPPCPAPEAAGGPSVFLFPPKPKDTLMISRTPEVTCVVVDVSHEDPEVKFNWYVDGVEVHNAKTKPREEQYNSTYRVVSVLTVLHQDWLNGKEYKCKVSNKALPAPIEKTISKAKGQPREPQVCTLPPSRDELTKNQVSLSCAVKGFYPSDIAVEWESNGQPENNYKTTPPVLDSDGSFFLVSKLTVDKSRWQQGNVFSCSVMHEALHNHYTQKSLSLSPGK
light: DIQMTQSPSSLSASVGDRVTITCRASQSINSYFNWYQQKPGKAPKLLIYAASGLQSGVPSRFSGSGSGTDFTLTISSLQPEDFATYYCQQSYSPPYTFGQGTNLEIKRTVAAPSVFIFPPSDEQLKSGTASVVCLLNNFYPREAKVQWKVDNALQSGNSQESVTEQDSKDSTYSLSSTLTLSKADYEKHKVYACEVTHQGLSSPVTKSFNRGEC
HepG2 Reporter assay, HepG2:FAP-CHO-K1 Co-culture EC50 [6]: 36 pM | CCL19 upregulation, HCC1187:CAF Co-culture EC50 [7]: 410 pM

B10: Clone 2.2 (antibody, V domains shown)
VH: EVQLVESGGGLVKPGGSLRLSCAASRFTFSSYSMNWVRQAPGKGLEWVSSISPSSSYIYYADSVKGRFTISRDNAKNSLYLQMNSLRAEDTAVYYCARDHYNWNFDALDIWGQGTMVTVSS
VL: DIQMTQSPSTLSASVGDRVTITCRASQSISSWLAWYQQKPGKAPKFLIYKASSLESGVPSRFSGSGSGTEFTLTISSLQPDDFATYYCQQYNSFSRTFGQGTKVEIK
notes: anti-LTBR mAb (bivalent)
HepG2 reporter assay EC50 (w/o cross-linking antibody) [1]: 17000 pM | HepG2 reporter assay EC50 (with cross-linking antibody) [1]: 190 pM | EC50 [4]: 720 pM | Kd [2]: 560 pM | Kd [3]: 710 pM
